The text below walks through data of paper PMC4618444, “Evaluation and directed evolution for thermostability improvement of a GH 13 thermostable α-glucosidase from Thermus thermophilus TC11” (BMC Biotechnology, 2015).

Positions count from the first letter of the chain named. In names and notes the source's numbering stands.

As a reminder, the Km is the substrate concentration at which the rate is half of its maximum. The term kcat denotes the number of substrate molecules converted per active site and unit of time at saturation. In general, kcat/Km refers to the second-order rate constant that governs catalysis at low substrate concentration.

Substrate in data set [1]: O=[N+]([O-])c1ccc(O[C@H]2O[C@H](CO)[C@@H](O)[C@H](O)[C@H]2O)cc1
The experiment in a line: purified protein.

Substrate in data set [2]: OC[C@H]1O[C@@](CO)(O[C@H]2O[C@H](CO)[C@@H](O)[C@H](O)[C@H]2O)[C@@H](O)[C@@H]1O
Put plainly: glucose release, glucose oxidase assay. Type of data set: biochemical, Thermus thermophilus. Conditions: 90 °C, citric acid-sodium phosphate buffer pH 5.0.

Substrate in data set [3]: OC[C@H]1O[C@H](O[C@H]2O[C@H](CO)[C@@H](O)[C@H](O)[C@H]2O)[C@H](O)[C@@H](O)[C@@H]1O
The experiment in a line: glucose release, glucose oxidase assay. Type of data set: biochemical, Thermus thermophilus. The note with it: 90 °C, citric acid-sodium phosphate buffer pH 5.0.

[4] abbreviates: optimal reaction conditions (90 °C, pH 5.0), substrate pNPG implied by context.
The mark [5] stands for this setting: 90 °C, citric acid-sodium phosphate buffer pH 5.0.

B1: TtAG (Thermus thermophilus; Q10Y) (protein)
chain: MWWKEAVIYYVYPRSFQDTNGDGVADVEGVRRRLPYLKSLGVDAIWLSPFYKSPMKDFGYDLADYCDVDPIFGTLQDFDRLLEEAHALGLRVLVDLVPNHTSSEHPWFLESRASRNSPKRDWYIWKDPAPDGGPPNNWQSFFGGPAWTLDEATGQYYLHQFLPEQPDLNWRNPEVREALYEVMRFWLRRGVDGFRVDVLWLLAEDLLFKDEPGNPDWRPGMWDRGRHLHIFTEDQPETYAYVREMRQVLDEFSEPGRERVMVGEIYLPYPQLLRYYQAGCHLPFNFHLIFRGLPDWRPENLARIVEEYESLLTRWDWPNWVLGNHDQPRLASRLGEAQARVGAMLLFTLRGTPTWYYGDEIGMKNGEIPPEKVQDPAALRQKDRLGEHQLPPGRDPERTPMQWDDTPFAGFSTVEPWLPVNPDYKTRNVAAQENDPRSMLHLVRRLIALRKDPDLLYGAYRTYRAREGVYAYLRGEGWLVAINLTEKEKALELPRGGRVVLTTHLDREERVGERLLLRPDEGVVVRLD
B1: in data set [1] (setting [4]), the Km is on record as 0.46 mM and the kcat was 356.57 s⁻¹.

B2: TtAG (Thermus thermophilus) (protein)
chain: B1 chain with Y10Q
notes: trimer by DLS (184 kDa)
Take B2: the Km in data set [1] (setting [5]) was found to be 0.48 mM; in data set [2], 30.53 mM; in data set [3] it was 19.96 mM. Also, the values for the kcat in data set [1] (setting [5]), in data set [2] and in data set [3] were 659 s⁻¹, 74.6 s⁻¹ and 140 s⁻¹, respectively. Moreover, the values for the kcat/Km in data set [1] (setting [5]), in data set [2] and in data set [3] were 1.37e+06 M⁻¹ s⁻¹, 2460 M⁻¹ s⁻¹ and 7020 M⁻¹ s⁻¹, respectively.
